For 21 variants, self-cleavage results are on record in the RNAGym collection of RNA variant scans (doi:10.7554/elife.90254).

The labels stand for the following.
B1: OR4K15 (parent)
chain: GUUAACGGUCAUAGGCCAUGGAAACUAGGAGCACCAUUUCGCUGCCAGUGAAGAAAUGAACAAAGAAAAUCUGGGCCAGGCAGGCAUCAAAAGAAAUAGUCUUGCGCUCAACCAGAAAGUCUGUAAUCAUUUUAAGGGUA

The variants in the data set derive from B1. Briefly: self-cleavage, relative activity (ratio to wild type); higher = more cleavage; in vitro, sequencing; the parent is a self-cleaving ribozyme.
For GUUAACGGUCAUAGGCCAUGGAAACUAGGAGCACCAUUUUGCUGCCAGUGAGGAAAUGAACAAAGAAAAUCUGGGCCAGGCAGGCAUCAAAAGAAAUAGUCUUGCGCUCAACCAGAAAGUCUGUAAUCAUUUUAAGGGUA [C40U A52G], the self-cleavage is 1.54.

For GUUAACGGUCAUAGGCCAUGGGAACUAGGAGCACCAUUUCGCUGCCAGUGAAGAAAUGAACAAAGAAACUCUGGGCCAGGCAGGCAUCAAAAGAAAUAGUCUUGCGCUCAACCAGAAAGUCUGUAAUCAUUUUAAGGGUA [A22G A69C], the self-cleavage came to 0.68.

Regarding GUUAACGGUCAUAGGCCAUGGAAACUAGGAGCACCAUUUCGCAGCCAGUGAAGAAACGAACAAAGAAAAUCUGGGCCAGGCAGGCAUCAAAAGAAAUAGUCUUGCGCUCAACCAGAAAGUCUGUAAUCAUUUUAAGGGUA [U43A U57C], the self-cleavage turned out to be 1.15.

As for GUUAACGGUCAUAGGCCAUGGAAACUAGGAGCACCAUUUCGCUGCCAGUGAAGAAAUGAACAAAGAAAAUCUGGGCCAGGCAGGCAUCAAAAGAAAUAGCCUUGCGCUCAACCAGAAAGUCUGUAAUCGUUUUAAGGGUA [U100C A129G], the self-cleavage was 2.22.

GUUAACGGUCAUAGGCCAUGGAAACUAGGAGCACCAUUUCGCUGCCAGUGAAGAAAUGAACAAAGAAAAUCUGGGCCAGGCAGGCAUCAAAAGAAAUAGUCUUGCGCUCAACCAGAGAGUCUGUAAUCAUUUUGAGGGUA [A117G A134G]: the self-cleavage came out at 0.61.

Consider GUUAACGGUCAUAGGCCAUGGAAACUAGGAGCACCAUUUCGCUGCCAGUGAAGAAAUGAACAAAGAAAAUCUGGGCCAGGCAGGCAUCAAAAGAAAUAGACUUGCGCUCAACCAGAAGGUCUGUAAUCAUUUUAAGGGUA [U100A A118G], for which the self-cleavage stood at 0.47.

With GUUAACGGUCAUAGGCCAUGGCAACUAGGAGCACCAUUUCGCUGCCAGUGAAGAAAUGAACAUAGAAAAUCUGGGCCAGGCAGGCAUCAAAAGAAAUAGUCUUGCGCUCAACCAGAAAGUCUGUAAUCAUUUUAAGGGUA [A22C A63U], the self-cleavage is 1.85.

As to GUUAACGGUCAUAGGCCAUGGAAACUAGGAGCACCAUUUCGCUGCCAGUGAAGAAAUGAACAAAGAAAAUCUGGGCCAGGCAGGCAUCAAAAGAAAUAGCCUUGCGCUCAACCAGAAAGUCUGAAAUCAUUUUAAGGGUA [U100C U124A], the self-cleavage amounted to 2.17.

GUUAACGGUCAUAGGCCAUGGAAACUAGGAGCACCUUUUCGCUGCCAGUGAAGAAAUGAACAAAGAAAAUCUGGGCCAGGCAGGCAUCAAAAGAAAUAGUCUUGCGCUCAACCAGAAAGUCUGCAAUCAUUUUAAGGGUA [A36U U124C]: the self-cleavage is 1.26.

As to GUUAACGGUCAUAGGCCAUGGAAACUUGGAGCACCAUUUCGCUGCCAGUGAAGAAAUGAACAAAGAAAAUCUGGGCCAGGCAGGCAUCAAAAGAAAUAGUCUUGCGCUCAACCAGGAAGUCUGUAAUCAUUUUAAGGGUA [A27U A116G], the self-cleavage is 0.63.

GUUAACGGUCAUAGGCCAUGGAAACUGGGAGCACCAUUUCGCUGCCAGUGAAGAAAUGAACAAAGAAAAUCUGGGCCAGGCAGGCAUCAAAAGGAAUAGUCUUGCGCUCAACCAGAAAGUCUGUAAUCAUUUUAAGGGUA [A27G A94G]: the self-cleavage is 1.48.

GUUAACGGUCAUAGGCCAUGGAAAUUAGGAGCACCAUUUCGCUGCCAGUGAAGAAAUGAACAAAGAAAAUCUGGGCCAGGCAGGCAUCAAUAGAAAUAGUCUUGCGCUCAACCAGAAAGUCUGUAAUCAUUUUAAGGGUA [C25U A91U]: the self-cleavage stood at 1.13.

Regarding GUUAACGGUCAUAGGCCAUGGAAACUAGGAGCACCAUUUCGCUGCCAGUGAAGAAAUGAACAAAGAAAAUCUGGGCCAGGCAGGCAUCAAAAGAAAUAGUCUUGCGCUCUACCAGAAAGUCUGUAAUCAUUUUAAGGGCA [A110U U139C], the self-cleavage amounted to 0.59.

Turning to GUUAACGGUCAUAGGCCAUGGAAACUAGGAGCACCAUUUCGCUGCCAGUGAAGAAAUGAACAAAGAAAAUCUGGGCCAGGCAGGCAUCAAAAGAAAUAGUCUUGCGCUCAACCAGAAAGCCUGUGAUCAUUUUAAGGGUA [U120C A125G], the self-cleavage was 0.43.

For the variant GUUAACGGUCAUAGGCCAUGGAAACUAGGAGCACCAUUUCGCUGCCUGUGAAGAAAUGAACAAAGAAAAUCUGGGCCAGGCAGGCAUCAAAAGAAAUAGUCUUGCACUCAACCAGAAAGUCUGUAAUCAUUUUAAGGGUA [A47U G106A], the self-cleavage is 0.01.

With GUUAACGGUCAUAGGCCAUGGGAACUAGGAGCACCAUUUCGCUGCCAGUGAAGAAAUGAACAAAGAAAAUCUGGGCCAGGCAGGCAUCAAAAGAAAUAGUCGUGCGCUCAACCAGAAAGUCUGUAAUCAUUUUAAGGGUA [A22G U102G], the self-cleavage turned out to be 1.05.

Take GUUAACGGUCAUAGGCCAUGGAAACUAGGAGCACCAUUUCGCUGCCAGUGAAGAAAUGAGCAAAGAAAAUCUGGGCCAGGCAGGCAUCAAAAGAAAAAGUCUUGCGCUCAACCAGAAAGUCUGUAAUCAUUUUAAGGGUA [A60G U97A]: the self-cleavage came out at 1.69.

With GUUAACGGUCAUAGGCCAUGGAAACUAGGAGCACCAUUUCGCUGCCAGUGAAGAAAUGAACAAAGAAAAUCUGGGCCAGGCAGGCUUCAAAAGAAAUAGCCUUGCGCUCAACCAGAAAGUCUGUAAUCAUUUUAAGGGUA [A86U U100C], the self-cleavage is 2.52.

For the variant GUUAACGGUCAUAGGCCAUGGAAACUAGGAGCACCAUUUCGCUGCCAGUGAAGAAAUGAACAAAGAAAAUCUGGGCCAGGCAGGCAUCAAAAGAAAAAGUCUUGCGCUCAACCAGAAAGUCUGUAACCAUUUUAAGGGUA [U97A U127C], the self-cleavage was 1.36.

In the case of GUUAACGGUCAUAGGCCAAGGAAACUAGGAGCACCAUUUCGCUGCCAGUGAAGAAAUGAACAAAGAAAAUCUGGGCCAGGCAGGCAUCAAAAGAAAUAGUCUUGCGCUCAACCAGAAAGUCUGUAAUCACUUUAAGGGUA [U19A U130C], the self-cleavage came out at 0.95.

With GUUAACGGUCACAGGCCAUGGAAACUAGGAGCACCAUUUCGUUGCCAGUGAAGAAAUGAACAAAGAAAAUCUGGGCCAGGCAGGCAUCAAAAGAAAUAGUCUUGCGCUCAACCAGAAAGUCUGUAAUCAUUUUAAGGGUA [U12C C42U], the self-cleavage worked out at 1.16.
